Experimental data published in IntAct's records for PubMed 21151104.

B1: T-box transcription factor TBX21 (Mus musculus), Q9JKD8 (parent)
chain: MGIVEPGCGDMLTGTEPMPSDEGRGPGADQQHRFFYPEPGAQDPTDRRAGSSLGTPYSGGALVPAAPGRFLGSFAYPPRAQVAGFPGPGEFFPPPAGAEGYPPVDGYPAPDPRAGLYPGPREDYALPAGLEVSGKLRVALSNHLLWSKFNQHQTEMIITKQGRRMFPFLSFTVAGLEPTSHYRMFVDVVLVDQHHWRYQSGKWVQCGKAEGSMPGNRLYVHPDSPNTGAHWMRQEVSFGKLKLTNNKGASNNVTQMIVLQSLHKYQPRLHIVEVNDGEPEAACSASNTHVFTFQETQFIAVTAYQNAEITQLKIDNNPFAKGFRENFESMYASVDTSVPSPPGPNCQLLGGDPFSPLLSNQYPVPSRFYPDLPGQPKDMISQPYWLGTPREHSYEAEFRAVSMKPTLLPSAPGPTVPYYRGQDVLAPGAGWPVAPQYPPKMSPAGWFRPMRTLPMDPGLGSSEEQGSSPSLWPEVTSLQPEPSDSGLGEGDTKRRRISPYPSSGDSSSPAGAPSPFDKETEGQFYNYFPN

Variants of: B1
Conditions: with runx1_mouse Runx1, Q03347
Chain of runx1_mouse Runx1, Q03347 (Q03347 whole entry): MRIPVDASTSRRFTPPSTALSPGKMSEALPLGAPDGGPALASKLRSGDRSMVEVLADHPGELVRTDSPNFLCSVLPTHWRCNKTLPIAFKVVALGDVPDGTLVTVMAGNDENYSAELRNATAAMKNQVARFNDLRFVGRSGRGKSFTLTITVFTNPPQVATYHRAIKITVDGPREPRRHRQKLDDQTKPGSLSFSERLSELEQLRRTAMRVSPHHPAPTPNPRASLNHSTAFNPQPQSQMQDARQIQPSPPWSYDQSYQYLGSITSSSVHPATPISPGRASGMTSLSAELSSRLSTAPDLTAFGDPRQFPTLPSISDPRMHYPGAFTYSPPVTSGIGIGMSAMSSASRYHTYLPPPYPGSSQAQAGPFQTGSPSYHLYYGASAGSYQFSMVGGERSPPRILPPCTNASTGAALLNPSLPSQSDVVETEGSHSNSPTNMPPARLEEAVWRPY

| effect of a mutation on the interaction | Variant |
| --- | --- |
| disrupting interaction | Y304F |
